Results on two molecules are retold here after patent US20030199671A1, “Binding molecules for Fc-region polypeptides” (priority 2001, published 2003).

The target of assay [1] is human IgG (unfractionated, polyclonal). As to the kind of experiment: total dynamic capacity.
Assay [2] has the same target. The experiment in a line: filterplate; 25 mg human IgG applied per ml resin.

Starred links: 1 amine or outer side, 2 acyl side, 3 side chain; linkers in the order of their positions; H or OH if unused. Primed or numbered codes have the meaning given here. code X″ = C-terminal linker unit, -NH-(CH2CH2O)2-CH2CH2- (X-NH2 = -NH-(CH2CH2O)2-CH2CH2-NH2), C(COCCOCC[*:2])N[*:1]; Su = not defined here

B1: DX877 (peptide)
peptide: Ac-GDDHMCVYTTWGELIWCDNHEPGPEG-{NH‑(CH2CH2O)2‑CH2CH2‑NH2}
modifications: not fully specified (bridges); printed as Ac-GDDHMCVYTTWGELIWCDNHEPGPEG-X-NH2; cysteine pairing not given here
For B1, in assay [1], the Dynamic Cap. stood at 8 mg/mL. The same molecule displayed a Static Cap. in assay [2] of 20 mg/mL.

B2: DX878 (peptide)
peptide: Ac-GDDHMCVYTTWGELIWCDNHEPG-{code X″-Su-code X″-NH2}
modifications: not fully specified (bridges); printed as Ac-GDDHMCVYTTWGELIWCDNHEPG-X-Su-X-NH2; cysteine pairing not given here; reading uncertain
Consider B2, for which, in assay [1], the Dynamic Cap. was 9 mg/mL. For the same molecule, the Static Cap. in assay [2] stood at 23 mg/mL.
